Earlier results as cited in publication PMC10979101.
pKd: −log10 of the molar value.

Biological target: Gab2 503-524 (Homo sapiens) (UniProt Q9UQC2)
UniProt Q9UQC2, sequence (Q9UQC2 503-524): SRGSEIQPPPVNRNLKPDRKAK

Substance: Grb2 C-SH3 C-SH3 (from UniProt P62993)
- pKd: 5.77
